A short description of the data set: Determination of structural forms by Superdex G-75 column elution. Type of data set: physicochemical. To be noted: for Peak profile / Retention Time: Superdex G-75 column (HR 10/30), phosphate buffered saline pH 7.4, flow rate 0.4 ml/min, sample 1.2 mg/ml; for Structural form (monomeric or polymeric): concluded from retention time and peak profile versus positive control [B28Lys, B29Pro] human insulin. As to the method: […] A preparation of each analogue is passed through Superdex G-75 column (HR 10/30). HI and [B28Lys, B29Pro] insulin (Lispro) are used as negative and positive controls respectively. Phosphate buffered saline pH 7.4 is used as an elution buffer and the flow rate fixed at 0.4 ml/min. The concentration of the sample preparation is 1.2 mg/ml.

“Hl: human insulin, used as negative control [reference compound]”: the Peak profile entry is “Unsymmetrical” and the “Retention Time” value came to 36.4 min.

Regarding “[B12Thr]Hl: insulin analogue in which the 12th amino acid of the B-chain of human insulin (Val) is substituted by Thr”, the Peak profile entry is on record as “Symmetrical”, the “Retention Time” value is listed as 39.4 min and the “Structural form (monomeric or polymeric)” value was “monomeric”.

“[B16Ala]Hl: human insulin analogue with replacement of Tyr by Ala in position B16”: the Peak profile result is recorded as “Symmetrical”, the “Retention Time” value was determined as 38.3 min and the “Structural form (monomeric or polymeric)” value is listed as “monomeric”.

With “[B26Ala]Hl: human insulin analogue with replacement of Tyr by Ala in position B26”, the Peak profile entry is “Symmetrical”, the “Retention Time” value was 38.9 min and the “Structural form (monomeric or polymeric)” value is listed as “monomeric”.

Consider “[B28Lys, B29Pro]Hl: commercial monomeric insulin with inversion of amino acids 28 and 29 of the B chain of human insulin; positive control [reference compound]”, for which the Peak profile entry was “Symmetrical” and the “Retention Time” value was found to be 39.4 min.
